From US20230330033A1

Biological target: CD40 (UniProt P25942)
Experiment: cell-based or functional assay

## LOB7/6 (antibody)
  EC50 of CD40 activation, bioluminescent reporter CHO cells: -1.47 log(µM)
